According to FireProtDB (doi:10.1021/bi00017a003):

Conditions: Hordeum vulgare; pH 6.3; 25 °C; GdnHCl; Fluorescence; MES 50 mM; whole UniProt chain shown

B1: Subtilisin-chymotrypsin inhibitor-2A wild type, P01053 (protein)
chain: MSSVEKKPEGVNTGAGDRHNLKTEWPELVGKSVEEAKKVILQDKPEAQIIVLPVGTIVTMEYRIDRVRLFVDKLDNIAQVPRVG
- denaturant m value: 1.9 kcal/mol/M
- denaturant midpoint (higher = more stable): 4 M
